The values below come from the nanobody polyreactivity screen of Harvey et al. (2022).

The nature of this data set: yeast display, Sf9 membrane polyspecificity reagent, FACS + sequencing; frameworks hold sequencing errors. Summed up: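 Galactose-induced (36–48 hours) yeast carrying a synthetic nanobody display library were exposed to 10% biotinylated, detergent-solubilized Sf9 membrane reagent at 4 °C for 1 hour. FACS followed streptavidin microbead enrichment, using low and high (top ~1%) gates for expression (anti-HA) and reagent binding (streptavidin). Colony PCR, MiSeq 2 × 250 sequencing and CDR-length filtering followed. Labels for polyreactivity reflect the gate of origin.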
For the sequence “QLQLVESGGGLVQAGGSLRLSCAASGRTFIHYAMGWYRQAPGKERELVAAISDDASSTYYADSVKGRFTISRDNAKNTVYLQMNSLKPEDTAVYYCNVELAKVGGVEYDYWGQGTLVTVSS”, the “polyreactivity (PSR sort gate)” value was “low polyreactivity”.
For “QLQLVESGGGLVQAGGSLRLSCAASGSIFFSYAMGWYRQAPGKERELVAAIDYSGGGTYYADSVKGRFTISRDNAKNTVYLQMNSLKPEDTAVYYCNSDTEVWADTFISYRALNYWGQGTQVTVSS” the value was “low polyreactivity”.
For “QLQLVESGGGLVQAGGSLRLSCAASGSIFHRYAMGWYRQAPGKEREFVAAISGRGGSTYYADSVKGRITISRDNAKNTVYLQMNSLKPEDTAVYYCAADSSLFYGRPRYYYWGQGTQVTVSS” the value was “high polyreactivity”; for “QLQLVESGGGLVQAGGSLRLSCAASGSIFNQYAMGWYRQAPGKERELVAAISSGSTYYADSVKGRFIISRDNAKNTVYLQMFSLKPEDTAVYYCAAGRNRRSSGIYVSKYWGQGTQETVSS”, “high polyreactivity”.
For “QLQLVESGGGLVQAGGSLRLSCAASGSIFPDYAMGWYRPAPAKERELVAAITWRDDSTYYADSVKGRFTISRDNAKNTVYLQMNSLKPEDTAVYYCNASALDPLYAKDDYWGQGTQVTVSS” the value was “low polyreactivity”.
Turning to “QLQLVESGGGLVQAGGSLRLSCAASGSILYIKTMGWYRQAPGKERELVAAITYSGGSTYYADAVKGRFTISRDNAKNTVYLQMTSLKPEDTAVYYCAADGYYGGFNYWGQGTQVTVSS”, the “polyreactivity (PSR sort gate)” value is listed as “low polyreactivity”.
Turning to “QLQLVESGGGLVQAGGSLRLSCAASGSIYWRNAMGWYRQAPGKERELVAAITSGGSTYYADSVKGRFTISRDNAKNTVYLQMNSLKPEDTAVYYCAAGYSYRYGYWGQGTQVTVSS”, the “polyreactivity (PSR sort gate)” value is reported as “low polyreactivity”.
For “QLQLVESGGGLVQAGGSLRLSCAASGSTFLYNAMGWYRQAPGKERELVAAITVSDGSTYYADSVKGRFTISRDNAKNTVYLKMNSLKPVDTAVYYCNADFPRKTRYEYWGQGTQVTVSS” the value was “low polyreactivity”; for “QLQLVESGGGLVQAGGSLRLSCAASGSTFPTNAMGWYRQAPGKERELVARISWDGGRTNYADSVKGRFTISRDNAKNTVYLQMNSLKPEDTAVYYCAAEKQHFGPYGYWGQGTQVTVSS”, “low polyreactivity”.
For “QLQLVESGGGLVQAGGSLRLSCAASGSTFREYAMGWYRQAPGKERELVAAISSGDSTNYADSVKGRFTISRDNAKNTVYLQMNSLKPEDTSVYYCAADAQGAAAVQNDYWGQGTQVTVSS” the value was “low polyreactivity”; for “QLQLVESGGGLVQAGGSLRLSCAASGSTFRYNAMGWYRQAPGKEREFVAAITSGGGSTYYADSVKGRFTISRDNAKNTVYLQMNSLKPEDTAVYYCAKYTSSRRNTWYYYWGQGTQVTVSS”, “high polyreactivity”.
For “QLQLVESGGGLVQAGGSLRLSCAASGSTISGYAMGWYRQAPGKARELVARINSGGGRTYYADSVKGRFTISRDNAKNTVYLQMNSLKREDTEVYYFAAYSKPFPYVSTIRYYYWGQGTQVTVSS” the value was “high polyreactivity”; for “QLQLVESGGGLVQAGGSLRLSCAASGSTLDRYVMGWYRPAPGKERELVAAISRNGGSTYYADSVKGRFTISRDIAKNTVYLQMNSLKPEDTAVYYCAAYIYQSPTRGGGYWGQGTQVTVSS”, “high polyreactivity”; for “QLQLVESGGGLVQAGGSLRLSCAASGSTYGPYAMGWYRQAPGKERELVSAITISGDSTNYADSVKGRFTISRDNAKNTVYLQMNSLKPEDTAVYYCAAAYYWLQSWYDYWGQGTQVTVSS”, “low polyreactivity”.
With “QLQLVESGGGLVQAGGSLRLSCAASGYMGWYRQAPGKERELVATISGSGGSTYYADSVKGRFTISRDNAKNTVYLQMNSLKPEDTAVYYCTTEIWGVNRSGYDYWGQGTQVTVSS”, the “polyreactivity (PSR sort gate)” value is on record as “low polyreactivity”.
For “QLQLVESGGGLVQAGGSLRLSCAASGYTFKTNDMGWYRQAPGKEREFVAAIDSGGNTYYADSVKGRFTISRDNAKNTVYLQMNSLKPEDTAVYYCAAYRDYQNDYWGQGTQVTVSS” the value was “low polyreactivity”; for “QLQLVESGGGLVQAGGSLRLSCAPSGRIFPSYAMGWYRQAPGKERELVAPISWSGVSTYADSVKGRFTISRDNAKNTVYLQMNSVKPEDTAVYFCAAQYTLVIFPYGGYVIEYEYWGQGTQVTVSS”, “low polyreactivity”; for “QLQLVESGGGLVQAGGSLRLSCAPTGRTFYRNAMGCKRPAPGKESELVASIRRNGGSTYYADSVKGRFTITRDNAKNTVYLPMNSMKPEDTAVYYCAAYFSYAGPKGAVYGMDYWGQGTQVTVSS”, “high polyreactivity”.
For “QLQLVESGGGLVQAGGSLRLSCASSGIIFRWYTIGWSRQAPGKERELDAAITGRGGSTFYADSVKGRFTISRDNAKNTVYVQMNSLKPEDTAFYYCAAQYSYPTPYRTYEYDYWGQGTQVTVSS” the value was “high polyreactivity”.
For “QLQLVESGGGLVQAGGSLRLSCASSGSIFLFNAMGWYRQAAGQERELVAAITSSGTRTYYADSVKGRFTISRDNAKNTVYLQMNSLKPEDTAVYYCNAVGPVDSYHRYYYWGQGTQGTVSS” the value was “low polyreactivity”; for “QLQLVESGGGLVQAGGSLRLSCASSGSNFQPYAMGWYRQAPGIERELVAAISRGGTTYYADSVKGRFTISRDNAKTTVYLQMNSLKPEDTAVYYCAADSYKPDGYRLRNDYWGQGTQVIVSS”, “high polyreactivity”; for “QLQLVESGGGLVQEGGSLRLSCAASGSTFVYNDKGWYRQAPGKDRELVAAITSGVRTYYSDYVKGRFTISRDNAKNTVYLQMNSLKPEDTALYYCGTGWRYAQYYYWGQGTQVTVSS”, “high polyreactivity”.
In the case of “QLQLVESGGGVVQAGGSLRLSCAASGGIFDRYAMGCDRQAPGKERELVAAITSGGSTNYADSVKGRFTISRDNAKNTVYLQMNSLQPEDTAVYYCNADLGILSGVAEGPTFREYDYWGQGTQVTVSS”, the “polyreactivity (PSR sort gate)” value was “low polyreactivity”.
For the sequence “QLQLVESGGRLVQAGGSLRLSCAASGFIFRWNAMGCYIQAPGKASEFVAAITSSTGSTYYAVSVKGRFTISRDNAKNTVYLQMNSLKPEDTAVYDCAADKRGTVYLSSFWMDYWGQGTQVTVSS”, the “polyreactivity (PSR sort gate)” value is on record as “low polyreactivity”.
For “QLQLVESGGVLVQAGGSLRLSCAASGTFYGYVMGWYRQAPGKERELGASINWSGGSTNYADSVKGRFTISRDNAKNTVFFQMNSRKPEDTAVYYCNADWGWGAYDYWGQGTQVTVSS” the value was “low polyreactivity”; for “QLQLVESGRGLVQAGGSLRLSCAPSGRILVLIAMGWYRQATGKERELVADITSGGSTYYADSVKGRFTISRDNAKKTVYLQMNSLKKEDTAVYYCAADWNTYPDYQQSYFVCYEYNYWGQGTQVTVSS”, “low polyreactivity”; for “QLQLVESGRGLVQAGGSLRLSCDASGYIFGWYAMGSYRQAPGKERELVAAITRGVSTNYADSVKGRFTISRENAMNTVYLQMNSLKPEDTAVYYCNTEDWAVGSPEVEYEYDYWGQGTQVTVSS”, “low polyreactivity”.
For “QLQLVESVGGLVQAGGSLRLSCASSGRTFDYNAMGWYRQAPGKERELVARISNGDSTYADSVKGRFTISRDNAKNTVYLQMNSLKPVDTAVYYCAKSTRRGGVALGEYDYWGQGTQVTVSS” the value was “low polyreactivity”; for “QLQLVETGGGIVQAAGSLRLSCAASGFTYNRYAKGWYRKAPGKERELVAAISRGGTTYADSVKGRFTISRDNAKNTVYLQMNSLKPEDTAVYYCNRLRYGYPQEFGYWGQGTQVTVSS”, “high polyreactivity”; for “QLQLVETGGGLVQAGGSLRLSCAATGSTFQGYPMGWYRQAPGKDRELVAAISWNGGSTYYADSVKGRFTISRDNAKNTVYLQMNSLKPEDTAVYYCAAYSFAYSYNYWGQGTQVTVSS”, “high polyreactivity”.
